B1: wild-type ecdysone receptor DNA binding domain (EcRDBDWT) [Drosophila melanogaster] / itself (parent)
chain: APRVQEELCLVCGDRASGYHYNALTCEGCKGFFRRSVTKSAVYCCKFGRACEMDMYMRRKCQECRLKKCLAVGMRPECVVPENQCAMKRREKKAQKEKDKMTTSPSSQHG
B2: wild-type ecdysone receptor DNA binding domain (EcRDBDWT) [Drosophila melanogaster] / ultraspiracle DNA binding domain (UspDBD) [Drosophila melanogaster] (parent)
chain 1: B1 chain
chain 2: NHPLSGSKHLCSICGDRASGKHYGVYSCEGCKGFFKRTVRKDLTYACRENRNCIIDKRQRNRCQYCRYQKCLTCGMKREAVQEERQ

Variants of: B1
Experiment: EMSA
Details: with itself; total protein 200 nM; homodimer complex (CIIE) on hsp27pal DNA probe; parent: 44; read off a plot

Variant	response (% hsp27pal bound)
APRVQEELCLVCGDRASGYHYNALTCEGCKGFFRRSVTKSAVYCCKFGRACEMDMYMRRKCQECRFKKCLAVGMRPECVVPENQCAMKRREKKAQKEKDKMTTSPSSQHG [chain 1 L66F]	47
APRVQEELCLVCGDRASGYHYNALTCEGCKGFFRRSVTKSAVYCCKFGRACEMDMYMRRKCQECRLKKCLAMGMRPECVVPENQCAMKRREKKAQKEKDKMTTSPSSQHG [chain 1 V72M]	23
APRVQEELCLVCGDRASGYHYNALTCEGCKGFFRRSVTKSAVYCCKFGRACEMDMYMRRKCQECRLKKALAVGMRPECVVPENQCAMKRREKKAQKEKDKMTTSPSSQHG [chain 1 C69A]	39
APRVQEELCLVCGDRASGYHYNARTCEGCKGFFRRSVTKSAVYCCKFGRACEMDMYMRRKCQECRLKKCLAVGMRPECVVPENQCAMKRREKKAQKEKDKMTTSPSSQHG [chain 1 L24R]	45

Next, values leading:

response (% hsp27pal bound)	Variant
7.4	APRVQEELCLVCGDRASGYHYNALTCEGCKGFFRRSVTKSAVYCCKFGRACEMDMYMRRKCQECRLKKCLAEGMRPECVVPENQCAMKRREKKAQKEKDKMTTSPSSQHG [chain 1 V72E]
42	APRVQEELCLVCGDRASGYHYNALTCEGCKGFFRRSVTKSAVYCCKFGRACEMDMYWRRKCQECRLKKCLAVGMRPECVVPENQCAMKRREKKAQKEKDKMTTSPSSQHG [chain 1 M57W]

Same assay, conditions: with itself; total protein 50 nM; homodimer complex (CIIE) on hsp27pal DNA probe; parent: 19; read off a plot

Variant	response (% hsp27pal bound)
APRVQEELCLVCGDRASGYHYNARTCEGCKGFFRRSVTKSAVYCCKFGRACEMDMYWRRKCQECRLKKCLAVGMRPECVVPENQCAMKRREKKAQKEKDKMTTSPSSQHG [chain 1 L24R M57W]	22
APRVQEELCLVCGDRASGYHYNARTCEGCKGFFRRSVTKSAVYCCKFGRACEMDMYMRRKCQECRFKKCLAVGMRPECVVPENQCAMKRREKKAQKEKDKMTTSPSSQHG [chain 1 L24R L66F]	20
APRVQEELCLVCGDRASGYHYNARTCEGCKGFFRRSVTKSAVYCCKFGRACEMDMYWRRKCQECRFKKCLAVGMRPECVVPENQCAMKRREKKAQKEKDKMTTSPSSQHG [chain 1 L24R M57W L66F]	36
APRVQEELCLVCGDRASGYHYNALTCEGCKGFFRRSVTKSAVYCCKFGRACEMDMYWRRKCQECRFKKCLAVGMRPECVVPENQCAMKRREKKAQKEKDKMTTSPSSQHG [chain 1 M57W L66F]	31

Variants of: B2
Experiment: EMSA
Details: with ultraspiracle DNA binding domain (UspDBD) [Drosophila melanogaster]; equimolar mixture of EcRDBD and UspDBD, total protein 200 nM; heterodimer complex (CIIUE) on hsp27pal DNA probe; parent: 62; read off a plot

Variant	response (% hsp27pal bound)
chain 1 APRVQEELCLVCGDRASGYHYNALTCEGCKGFFRRSVTKSAVYCCKFGRACEMDMYMRRKCQECRLKKCLAEGMRPECVVPENQCAMKRREKKAQKEKDKMTTSPSSQHG [chain 1 V72E]	42
chain 1 APRVQEELCLVCGDRASGYHYNALTCEGCKGFFRRSVTKSAVYCCKFGRACEMDMYMRRKCQECRLKKCLAMGMRPECVVPENQCAMKRREKKAQKEKDKMTTSPSSQHG [chain 1 V72M]	57
chain 1 APRVQEELCLVCGDRASGYHYNALTCEGCKGFFRRSVTKSAVYCCKFGRACEMDMYWRRKCQECRLKKCLAVGMRPECVVPENQCAMKRREKKAQKEKDKMTTSPSSQHG [chain 1 M57W]	61
chain 1 APRVQEELCLVCGDRASGYHYNALTCEGCKGFFRRSVTKSAVYCCKFGRACEMDMYMRRKCQECRFKKCLAVGMRPECVVPENQCAMKRREKKAQKEKDKMTTSPSSQHG [chain 1 L66F]	64

The next lines start with the values.

response (% hsp27pal bound)	Variant
58	chain 1 APRVQEELCLVCGDRASGYHYNARTCEGCKGFFRRSVTKSAVYCCKFGRACEMDMYMRRKCQECRLKKCLAVGMRPECVVPENQCAMKRREKKAQKEKDKMTTSPSSQHG [chain 1 L24R]
55	chain 1 APRVQEELCLVCGDRASGYHYNALTCEGCKGFFRRSVTKSAVYCCKFGRACEMDMYMRRKCQECRLKKALAVGMRPECVVPENQCAMKRREKKAQKEKDKMTTSPSSQHG [chain 1 C69A]

Same assay, conditions: with ultraspiracle DNA binding domain (UspDBD) [Drosophila melanogaster]; equimolar mixture of EcRDBD and UspDBD, total protein 50 nM; heterodimer complex (CIIUE) on hsp27pal DNA probe; parent: 42; read off a plot

Variant	response (% hsp27pal bound)
chain 1 APRVQEELCLVCGDRASGYHYNALTCEGCKGFFRRSVTKSAVYCCKFGRACEMDMYWRRKCQECRFKKCLAVGMRPECVVPENQCAMKRREKKAQKEKDKMTTSPSSQHG [chain 1 M57W L66F]	51
chain 1 APRVQEELCLVCGDRASGYHYNARTCEGCKGFFRRSVTKSAVYCCKFGRACEMDMYMRRKCQECRFKKCLAVGMRPECVVPENQCAMKRREKKAQKEKDKMTTSPSSQHG [chain 1 L24R L66F]	39
chain 1 APRVQEELCLVCGDRASGYHYNARTCEGCKGFFRRSVTKSAVYCCKFGRACEMDMYWRRKCQECRLKKCLAVGMRPECVVPENQCAMKRREKKAQKEKDKMTTSPSSQHG [chain 1 L24R M57W]	45
chain 1 APRVQEELCLVCGDRASGYHYNARTCEGCKGFFRRSVTKSAVYCCKFGRACEMDMYWRRKCQECRFKKCLAVGMRPECVVPENQCAMKRREKKAQKEKDKMTTSPSSQHG [chain 1 L24R M57W L66F]	57
